This series addresses HP1α (mouse) (UniProt Q61686). Kind of series: BLI. The conditions noted are these: K+, BLI: 100 mM KCl, 50 mM NaCl, 20 mM Na phosphate, pH 8 (G4) or pH 7 (i-motif, dsDNA), room temp, 500 nM oligo or titration, EMSA: 50 mM Tris-HCl pH 7.5, 100 mM ….

Here are results for three substances from paper PMC6954420.

HP1α (mouse), sequence (Q61686 whole entry): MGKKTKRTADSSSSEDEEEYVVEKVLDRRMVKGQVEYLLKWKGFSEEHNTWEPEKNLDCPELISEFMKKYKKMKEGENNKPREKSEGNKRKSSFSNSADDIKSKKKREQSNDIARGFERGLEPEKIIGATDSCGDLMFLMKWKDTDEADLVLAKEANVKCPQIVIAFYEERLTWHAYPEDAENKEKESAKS

TERRA22 showed a dissociation constant (Kd) of 940 nM.
TERRA45 registered a dissociation constant Kd (Fig S2 gives error 0.4) of 74.4 nM.
As to TERRA96, the Kd was 2.5 nM.

The term Kd denotes the concentration at which binding is half-saturated. Low values mean higher affinity, high ones lower affinity.
